Measurements published in publication PMC9319256, “Human Enzyme PADI4 Binds to the Nuclear Carrier Importin α3” (Cells, 2022).

Experiments:
ΔImpα3 [1] = test: Fluorescence titration of PADI4 with ΔImpα3; type: binding, human; conditions: fluorescence at 330 nm; 3 µM PADI4, 0–25 µM importin; 20 mM Tris pH 7.5, 5 mM TCEP, 150 mM NaCl, 5% glycerol, 25 °C; titration repeated three times; ± fitting error
Method: (§1) For the titration between either Impα3 or ΔImpα3 and intact PADI4, increasing amounts of the corresponding importin species, in the concentration range 0–25 µM, were added to a solution with a fixed concentration of intact PADI4 (3 µM). Experiments were carried out in 20 mM Tris buffer (pH 7.5), 5 mM TCEP, 150 mM NaCl, and 5% glycerol at 25 °C (the storage buffer of PADI4). The experimental setup was the same as in the steady-state fluorescence experiments. Blank corrections containing the amount of each importin species were subtracted. Inner-filter effects were corrected. Each titration (Impα3 with PADI4 or ΔImpα3 with PADI4) was repeated three times, using new samples. In the three cases, the variations in the results were lower than 10%.
(§2) Handling and preparation of samples were the same described in Section 2.4.1. The dissociation constant of the corresponding complex, Kd, was calculated by fitting the binding isotherm to the general binding model, explicitly considering ligand depletion. […] Fitting to Equation (1) was carried out using KaleidaGraph (Synergy software, Reading, PA, USA).

Impα3 [2] = target: T1, Impα3 (Homo sapiens, UniProt O00629); test: Far-UV CD, complex versus addition spectrum, Impα3; type: binding; conditions: 25 °C; average of six scans
T1 construct: made in house
T1 sequence (O00629 1-521): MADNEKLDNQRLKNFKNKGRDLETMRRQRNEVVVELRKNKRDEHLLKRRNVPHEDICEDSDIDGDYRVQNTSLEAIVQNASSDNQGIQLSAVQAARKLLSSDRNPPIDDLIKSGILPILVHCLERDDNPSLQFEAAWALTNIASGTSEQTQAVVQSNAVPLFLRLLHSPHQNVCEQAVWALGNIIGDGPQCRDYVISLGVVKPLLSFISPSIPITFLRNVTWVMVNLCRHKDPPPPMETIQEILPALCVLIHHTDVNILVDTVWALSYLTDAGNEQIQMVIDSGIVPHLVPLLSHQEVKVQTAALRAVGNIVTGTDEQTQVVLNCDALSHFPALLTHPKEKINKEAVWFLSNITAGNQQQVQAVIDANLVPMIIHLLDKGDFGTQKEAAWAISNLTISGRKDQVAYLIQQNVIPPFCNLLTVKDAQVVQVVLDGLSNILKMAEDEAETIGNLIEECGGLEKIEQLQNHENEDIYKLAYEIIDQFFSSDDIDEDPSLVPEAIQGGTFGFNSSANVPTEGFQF
Description: Far-UV CD spectra were collected on a Jasco J810 spectropolarimeter (Jasco, Tokyo, Japan) interfaced with a Peltier unit. The instrument was periodically calibrated with (+)-10-camphorsulfonic acid. A cell of path length 0.1 cm was used (Hellma, Kruibeke, Belgium). All spectra were corrected by subtracting the corresponding baseline. Concentration of each polypeptide (importin species and either NLS1/2-PADI4 or PADI4) and the buffers were the same used in the fluorescence experiments (Section 2.4).
Isothermal wavelength spectra of each isolated macromolecule and that of the complex were acquired as an average of six scans, at a scan speed of 50 nm/min, with a response time of 2 s and a bandwidth of 1 nm. Handling and preparation of samples were the same described in Section 2.4.1.

Impα3 [3] = target: T1, Impα3; test: Isothermal titration calorimetry (ITC), Impα3; type: binding
Method: (§3) Calorimetric titrations for testing the interaction of PADI4, as well as for the interaction of NLS1/2-PADI4 peptides, with both importins, Impα3 and ΔImpα3, were carried out in an Auto-iTC200 automated high-sensitivity calorimeter (MicroCal, Malvern-Panalytical, Malvern, UK). Experiments were performed in 20 mM Tris buffer (pH 7.5), 5 mM TCEP, 150 mM NaCl, and 5% glycerol at 25 °C. PADI4 or the peptide solution (100 μM) in the injection syringe was titrated into the importin solution (10 μM) in the calorimetric cell. The remaining experimental and processing details have been described previously. Due to the presence of glycerol in solution, background injection (included as an adjustable parameter in data fitting) was rather large. The data analysis was conducted in Origin 7.0 (OriginLab, Northampton, MA, USA) with user-defined fitting functions.

ΔImpα3 [4] = test: Isothermal titration calorimetry (ITC), ΔImpα3; type: binding, human
Method: as §3

Impα3 [5] = target: T1, Impα3; test: Steady-state fluorescence, complex versus addition spectrum, Impα3; type: binding; conditions: 20 µM PADI4 or peptide, 2 µM Impα3; 50 mM sodium phosphate pH 7.0, 25 °C; excitation 280 or 295 nm; triplicates
Method: Spectra were collected on a Cary Varian spectrofluorometer (Agilent, Santa Clara, CA, USA), interfaced with a Peltier unit. Following the standard protocols used in our laboratories, the samples were prepared the day before and left overnight at 5 °C; before experiments, samples were left for 1 h at 25 °C, where experiments were acquired. A 1 cm pathlength quartz cell (Hellma, Kruibeke, Belgium) was used. The concentration of PADI4 or NLS1/2-PADI4 peptides was 20 µM, and that of each importin species was 2 µM. Samples containing the corresponding isolated peptides, the isolated PADI4, the isolated corresponding importin species, and the corresponding mixtures (at the concentrations indicated above) were prepared. Experiments were performed with samples in 50 mM sodium phosphate buffer, pH 7.0. Fluorescence experiments were repeated in triplicates with newly prepared samples. Variations of results among the experiments were lower than 5%.
Polypeptide samples were excited either at 280 or 295 nm (although NLS2-PADI4 has only a single […]). The other experimental parameters used in the experiments have been described elsewhere. Appropriate blank corrections were made in all spectra.

Impα3 [6] = target: T1, Impα3; test: Fluorescence titration of PADI4 with Impα3; type: binding; conditions: fluorescence at 330 nm; 3 µM PADI4, 0–25 µM importin; 20 mM Tris pH 7.5, 5 mM TCEP, 150 mM NaCl, 5% glycerol, 25 °C; titration repeated three times; ± fitting error
Method: as §1, §2

[7] = Impα3, pH 7.5, 25 °C, 95% confidence interval in parentheses

PADI4: human peptidyl-arginine deiminase 4, intact protein, purified as previously described
Kd (ΔImpα3 [1]): 6 ± 1 µM
change in far-UV CD spectrum of complex versus addition spectrum (Impα3 [2]): the addition spectrum was not very different from that of the complex
ΔG (Impα3 [3]; Impα3, pH 7.5, 25 °C): -7.3 kcal/mol
n (binding stoichiometry or percentage of binding-competent protein) (Impα3 [3]; [7]): 0.97 (0.94, 1.00)
ΔH (binding enthalpy) (Impα3 [3]; [7]): −65.5 (−72.0, −60.5) kcal/mol
Ka (association constant) (Impα3 [3]; PADI4 or peptide (100 μM) titrated into Impα3 (10 μM), 20 mM Tris pH 7.5, 5 mM TCEP, 150 mM NaCl, 5% glycerol, 25 °C, 95% confidence interval in parentheses): 2.1 (1.7, 2.5) 10^5 M^−1
Kd (Impα3 [3]; PADI4 or peptide (100 μM) titrated into Impα3 (10 μM), 20 mM Tris pH 7.5, 5 mM TCEP, 150 mM NaCl, 5% glycerol, 25 °C, 95% confidence interval in parentheses, read-out: Kd (dissociation constant)): 4.8 µM
Ka (association constant) (ΔImpα3 [4]; PADI4 or peptide (100 μM) titrated into ΔImpα3 (10 μM), 20 mM Tris pH 7.5, 5 mM TCEP, 150 mM NaCl, 5% glycerol, 25 °C, 95% confidence interval in parentheses): 7.8 (7.3, 8.5) 10^5 M^−1
Kd (ΔImpα3 [4]; PADI4 or peptide (100 μM) titrated into ΔImpα3 (10 μM), 20 mM Tris pH 7.5, 5 mM TCEP, 150 mM NaCl, 5% glycerol, 25 °C, 95% confidence interval in parentheses, read-out: Kd (dissociation constant)): 1.3 µM
-TΔS (ΔImpα3 [4]; ΔImpα3, pH 7.5, 25 °C): -30.4 kcal/mol
ΔG (ΔImpα3 [4]; ΔImpα3, pH 7.5, 25 °C): -8.0 kcal/mol
change in fluorescence spectrum of complex versus addition spectrum (Impα3 [5]): a variation in the fluorescence intensity
Kd (Impα3 [6]): 3.9 ± 0.8 µM
